# Data as given in patent publication US20110093983A1, “ALGAL GLYCEROL-3 PHOSPHATE ACYLTRANSFERASE” (National Research Council of Canada, priority 2008, published 2011).
# What was measured:
# yeast gat1 mutant [1] = assay: Incorporation of fed EPA or DHA into TAGs and phospholipids of yeast gat1 mutant; format: cell-based, Saccharomyces cerevisiae; conditions: for mol % of FA in Phospholipids, DHA / mol % of FA in Phospholipids, EPA / mol % of FA in TAGS, DHA / mol % of FA in TAGS, EPA: 3-day induction
# Method: (§1) Yeast cultures were grown at 28° C. in the presence of 2% (w/v) glucose and 1% (w/v) Tergitol NP-40 (Sigma, St. Louis, Mo., US). Expression of the transgene was induced at OD600 nm 0.2 to 0.3 by supplementing galactose to 2% (w/v). At that time, the appropriate FAs were added to a final concentration of 50 or 100 μM in the presence of 1% (w/v) Tergitol NP-40 (Sigma, St. Louis, Mo., US). Yeast cells (20 ml) were harvested after a 3-day incubation, total lipids from yeast homogenates were extracted using the procedure of Schneiter (2005). Separation of neutral lipids and polar lipids was performed by running the thin layer chromatography plates (Si 250-PA, Baker, Phillipsburg, N.J.) in a developing solvent of hexane: ether: acetic acid (70:30:1, v/v) and identified by co-migration with known standards. Spots corresponding to TAG and phospholipid were scraped off the TLC plates and were transmethylated with methanolic HCl and quantified by gas chromatography as described previously. (Zheng and Zou, 2001).
# Yeast gat1 strain transformed with TpGPAT or empty vector pYES2.1 was grown in the presence of EPA or DHA, while being induced by galactose. Triacylglycerols (TAGS) and phospholipids from the 3-day culture were extracted and analyzed by gas chromatography for fatty acid composition. […] It was not clear if this were due to the low GPAT activity for these VLCPUFAs or the lack of EPA and DHA-CoA in the cells.
# yeast gat1 mutant [2] = assay: Fatty acid composition of TAG and phospholipids from yeast gat1 mutant expressing TpGPAT1; format: cell-based, Saccharomyces cerevisiae; conditions: for Proportion of Fatty Acid 16:0 / Proportion of Fatty Acid 16:1 / Proportion of Fatty Acid 18:0 / Proportion of Fatty Acid 18:1 / Proportion of Fatty Acid Sats / Proportion of Fatty Acid Unsats: 3-day induction with 2% galactose, average ± SD, three replicates
# Method: as §1
# To investigate if the over-expression of TpGPAT has any effect on the fatty acids composition of yeast lipids in vivo, the gall cells harboring TpGPAT or an empty vector as control were induced for 3 days by galactose at 28° C. The total lipids was extracted and then separated into triacylglycerols (TAGS) and phospholipids by TLC for the analysis of fatty acid composition. […] Approximately 12% and 18% increase of 16:0 in phospholipids and triacylglycerols, respectively, turned 16:0 into the most dominant fatty acid in the TpGPAT expressing yeast cells, instead of 16:1 fatty acid in the mutant cells harboring the empty vector. Conversely, the unsaturated fatty acids, 16:1 and 18:1, were reduced to 15% and 21% in these two lipid species. […] Collectively, the results strongly support the finding in the in vitro substrate specificity assay that 16:0 is the most preferred substrate for TpGPAT.
# Brassica napus = assay: Fatty acid analysis of T1 seeds from TpGPAT transgenic Brassica napus; format: in vivo; conditions: 5 transgenic Brassica napus events; wild-type 4.27-4.64%
# Method: FIG. 6 graphically depicts the results of the analysis of the fatty acid 16:0 content of T1 seeds from TpGPAT transgenic Brassica napus. Fatty acid analysis was performed on TpGPAT transformed B. napus seeds. Fatty acid composition (as molar percentage) was determined in the seed oil extracted from T1 seeds of five independent TpGPAT:pSE transformed Brassica napus events (GPAT1, 3, 4, 7 and 12). Wild-type B. napus was used as a control.
# The full length coding region of the TpGPAT gene was amplified using pfu DNA polymerase and primers designed with two restriction sites (KpnI and XbaI) added for subsequent cloning. Then, the PCR product was digested and inserted in a plant transformation vector (pSE129A) under the control of a seed-specific promoter (Napin). The binary vector was introduced by electroporation into Agrobacterium tumefaciens strain GV3101 containing helper plasmid pMP90 (Koncz and Schell, 1986).
# Brassica napus 5-day-old hypocotyls were also transformed with Agrobacterium containing the TpGPAT/pSE129A construct. Transgenic T0 plants were regenerated, selected for resistance to kanamycin and grown in soil. Individual plants were bagged to allow self-pollination. Presence of the TpGPAT and Kan genes in the resistant plants was verified by PCR with the appropriate primers in 18 independent events. T1 seeds from the first set of 5 transgenic events were harvested and analyzed. […]
molecule,measurement,setting,value
"TpGPAT1: membrane-bound glycerol-3-phosphate acyltransferase from T. pseudonana, 674 amino acids, SEQ ID NO:2 (nucleotide SEQ ID NO:1) (protein, listed as Thalassiosira pseudonana) MGVEKKGTMMSELDYTKAQLAFFYIVVLLSLDMLNPVKIFLHVFPAIKSWHIATFAIACMSYIFIVNLRELLYFATKVFFHSILSIFFNDVTVVGRENIPSHGPVIFTSNHANQFMDGLMIMCTCQRTISYLVADKSWNRPIIGHLAWMMGGVPVKRAQDSACKGTGKISIDLNALAGSDAVINVVGKGTSFTSQIKAGDKIRLPNNAIGIKVESIESDESMSLKVEDGVAEVLSSHPFPEYVTYDILPRIDQKDVYQNVLEKLASGGTIGIFPEGGSHDRTDLLPLKVGVALIAYSELEKDGINVPIVPVGLNYFRAHRFRGKATVEFGSPTYIEPSTLADYKKGGADKRRVCNDLLARIENSMRSVIVSVPDFETLQTIHAARRLYRQDGRNETAEQRQDMGRRFAEGYKRVLLQLGGEPPEEWLSLQSRILAYQKELNELGIRDYQVVGLDHEEVELGSESQGHSKADTVLHRMNVFGHIVHLFVIAVLAALPAMLLNLPVGLASRIYSNRRRKVALAASKVKVKGYDVMLSERVLACIVLVPSLWVVYGLLLSLFTSLDGPSLAVCFTCFPLFSYWSIMATESGMVDIKDLRPYVMRMIPSARRRLAALPATRKALRSDLRAMIKKIGPSLGDIYYEKDLNWQKIQMETKRMSMEELDPAQKDEAAKKEE","mol % of FA in Phospholipids, DHA",yeast gat1 mutant [1]; feeding concentration 50 μM,0.22 ± 0.03 mol %
same,"mol % of FA in Phospholipids, EPA",yeast gat1 mutant [1]; feeding concentration 50 μM,0.42 ± 0.01 mol %
same,"mol % of FA in TAGS, DHA",yeast gat1 mutant [1]; feeding concentration 50 μM,0.70 ± 0.06 mol %
same,"mol % of FA in TAGS, EPA",yeast gat1 mutant [1]; feeding concentration 50 μM,1.18 mol %
same,"mol % of FA in Phospholipids, DHA",yeast gat1 mutant [1]; feeding concentration 100 μM,0.34 ± 0.02 mol %
same,"mol % of FA in Phospholipids, EPA",yeast gat1 mutant [1]; feeding concentration 100 μM,0.85 ± 0.15 mol %
same,"mol % of FA in TAGS, DHA",yeast gat1 mutant [1]; feeding concentration 100 μM,1.10 ± 0.07 mol %
same,"mol % of FA in TAGS, EPA",yeast gat1 mutant [1]; feeding concentration 100 μM,3.38 ± 0.78 mol %
same,Impact on incorporation of LCPUFAs into TAG or phospholipids compared to empty vector control,"yeast gat1 mutant [1]; yeast gat1 grown in presence of EPA or DHA, 3-day culture",did not have much impact
same,Proportion of Fatty Acid 16:0,yeast gat1 mutant [2]; Phospholipids,31.10 ± 3.78 mol %
same,Proportion of Fatty Acid 16:1,yeast gat1 mutant [2]; Phospholipids,34.15 ± 2.74 mol %
same,Proportion of Fatty Acid 18:0,yeast gat1 mutant [2]; Phospholipids,8.92 ± 1.49 mol %
same,Proportion of Fatty Acid 18:1,yeast gat1 mutant [2]; Phospholipids,25.45 ± 2.25 mol %
same,Proportion of Fatty Acid Sats,yeast gat1 mutant [2]; Phospholipids,40.02 ± 4.57 mol %
same,Proportion of Fatty Acid Unsats,yeast gat1 mutant [2]; Phospholipids,59.83 ± 4.61 mol %
same,Proportion of Fatty Acid 16:0,yeast gat1 mutant [2]; TAG,41.80 ± 2.17 mol %
same,Proportion of Fatty Acid 16:1,yeast gat1 mutant [2]; TAG,29.15 ± 1.61 mol %
same,Proportion of Fatty Acid 18:0,yeast gat1 mutant [2]; TAG,9.17 ± 1.22 mol %
same,Proportion of Fatty Acid 18:1,yeast gat1 mutant [2]; TAG,18.94 ± 0.99 mol %
same,Proportion of Fatty Acid Sats,yeast gat1 mutant [2]; TAG,50.97 ± 2.85 mol %
same,Proportion of Fatty Acid Unsats,yeast gat1 mutant [2]; TAG,48.49 ± 2.44 mol %
same,Increase of 18:0 versus empty vector,"yeast gat1 mutant [2]; yeast gat1, both TAG and phospholipids",3-4%
same,Reduction of unsaturated fatty acids 16:1 and 18:1 in phospholipids versus empty vector,"yeast gat1 mutant [2]; yeast gat1, phospholipids",15%
same,Increase of 16:0 in triacylglycerols versus empty vector,"yeast gat1 mutant [2]; yeast gat1, triacylglycerols",~18%
same,Reduction of unsaturated fatty acids 16:1 and 18:1 in triacylglycerols versus empty vector,"yeast gat1 mutant [2]; yeast gat1, triacylglycerols",21%
same,16:0 percentage in T1 seeds,Brassica napus,4.64-6.67%
